Experimental data: patent US20240228660A1 (IP2IPO INNOVATIONS, published 2024)

B1: 4-H3_H5_VL-par (antibody, human IgG1, kappa)
heavy chain: not shown
light chain: AYDMTQTPPSLSASVGETVRIRCLASEDIASGISWYQQKPGKPPTLLIYGASNLESGVPPRFSGSGSGTDYTLTIGGVQAEDAATYYCLGGYSFSSNGLTFGAGTKVEIKTVAAPSVFIFPPSDEQLKSGTASVVCLLNNFYPREAKVQWKVDNALQSGNSQESVTEQDSKDSTYSLSSTLTLSKADYEKHKVYACEVTHQGLSSPVTKSFNRGEC
notes: also called 4-H3_H5 (hIgG1)
B2: 4-H3_H1_VL-par (antibody, human IgG1, kappa)
heavy chain: not shown
light chain: AYDMTQTPPSLSASVGETVRIRCLASEDIASGISWYQQKPGKPPTLLIYGASNLESGVPPRFSGSGSGTDYTLTIGGVQAEDAATYYCLGGYSFSSNGLTFGAGTKVEIKTVAAPSVFIFPPSDEQLKSGTASVVCLLNNFYPREAKVQWKVDNALQSGNSQESVTEQDSKDSTYSLSSTLTLSKADYEKHKVYACEVTHQGLSSPVTKSFNRGEC
notes: also called 4-H3_H1 (hIgG1)
B3: 4-H3_H0_VL-par (antibody, human IgG1, kappa, V domains shown)
VH: QVQLVESGGGVVQPGRSLRLSCAASGFTFSSNAMNWVRQAPGKGLEWVAGIYGHDTSYYAAWAKGRFTISRDNSKNTLYLQMNSLRAEDTAVYYCARGFIYFDIWGQGTLVTVSS
VL: AYDMTQTPPSLSASVGETVRIRCLASEDIASGISWYQQKPGKPPTLLIYGASNLESGVPPRFSGSGSGTDYTLTIGGVQAEDAATYYCLGGYSFSSNGLTFGAGTKVEIKT
notes: also called 4-H3_H0 (hIgG1)
B4: 4-H3_H3_VL-par (antibody, human IgG1, kappa, V domains shown)
VH: QVQLVESGGGVVQPGRSLRLSCAASGIDLTSNAMNWVRQAPGKGLEWIGGIYGHDTSYYAAWAKGRFTISRDNSKNTVYLQMNSLRAEDTAVYYCARGFIYFDIWGQGTLVTVSS
VL: AYDMTQTPPSLSASVGETVRIRCLASEDIASGISWYQQKPGKPPTLLIYGASNLESGVPPRFSGSGSGTDYTLTIGGVQAEDAATYYCLGGYSFSSNGLTFGAGTKVEIKT
notes: also called 4-H3_H3 (hIgG1)
B5: 4-H3_H2_VL-par (antibody, human IgG1, kappa)
heavy chain: not shown
light chain: AYDMTQTPPSLSASVGETVRIRCLASEDIASGISWYQQKPGKPPTLLIYGASNLESGVPPRFSGSGSGTDYTLTIGGVQAEDAATYYCLGGYSFSSNGLTFGAGTKVEIKTVAAPSVFIFPPSDEQLKSGTASVVCLLNNFYPREAKVQWKVDNALQSGNSQESVTEQDSKDSTYSLSSTLTLSKADYEKHKVYACEVTHQGLSSPVTKSFNRGEC
notes: also called 4-H3_H2 (hIgG1)
B6: 1-D5_VH-par_VL-par (antibody, human IgG1, kappa)
heavy chain: not shown
light chain: DIVMTQTPSSVSAAVGDTVTIQCQASQSINSGLAWYQQKPGQPPKRLIYKASTLASGVPSRFRGSGSGTDFTLTISDLECADAATYYCQSYHYISANGATFGGGTEVVVETVAAPSVFIFPPSDEQLKSGTASVVCLLNNFYPREAKVQWKVDNALQSGNSQESVTEQDSKDSTYSLSSTLTLSKADYEKHKVYACEVTHQGLSSPVTKSFNRGEC
notes: also called 1-D5_parental (hIgG1)
B7: 1-D5_VH-par_L1 (antibody, human IgG1, kappa, V domains shown)
VH: QQQLVESGGRLVTPGTPLTLTCAVSGFSLNNYIMGWVRQAPGKGLEYIGIISTGGSTYYASWAKGRFTISRTSTTMDLKMTSLTTEDTATYFCARGGSSAGAGFNIWGPGTLVTVSS
VL: DIQMTQSPSSLSASVGDRVTITCQASQSINSGLAWYQQKPGKAPKRLIYKASTLASGVPSRFSGSGSGTDFTLTISSLQPEDFATYYCQSYHYISANGATFGGGTKVEIKT
notes: also called 1-D5_L1 (hIgG1K)
B8: 1-D5_VH-par_L0 (antibody, human IgG1, kappa, V domains shown)
VH: QQQLVESGGRLVTPGTPLTLTCAVSGFSLNNYIMGWVRQAPGKGLEYIGIISTGGSTYYASWAKGRFTISRTSTTMDLKMTSLTTEDTATYFCARGGSSAGAGFNIWGPGTLVTVSS
VL: DIQMTQSPSSLSASVGDRVTITCQASQSINSGLAWYQQKPGKAPKLLIYKASTLASGVPSRFSGSGSGTDFTLTISSLQPEDFATYYCQSYHYISANGATFGGGTKVEIKT
notes: also called 1-D5_L0 (hIgG1K)
B9: 1-D5_H2_VL-par (antibody, human IgG1, kappa, V domains shown)
VH: QQQLVESGGGVVQPGRSLRLSCAASGFSLNNYIMGWVRQAPGKGLEYIGIISTGGSTYYASWAKGRFTISRDSNTMYLQMNSLRAEDTATYFCARGGSSAGAGFNIWGQGTLVTVSS
VL: DIVMTQTPSSVSAAVGDTVTIQCQASQSINSGLAWYQQKPGQPPKRLIYKASTLASGVPSRFRGSGSGTDFTLTISDLECADAATYYCQSYHYISANGATFGGGTEVVVET
notes: also called 1-D5_H2 (hIgG1)
B10: 1-D5_H1_VL-par (antibody, human IgG1, kappa, V domains shown)
VH: QVQLVESGGGVVQPGRSLRLSCAASGFSLNNYIMGWVRQAPGKGLEWVAIISTGGSTYYASWAKGRFTISRDNSKNTLYLQMNSLRAEDTAVYYCARGGSSAGAGFNIWGQGTLVTVSS
VL: DIVMTQTPSSVSAAVGDTVTIQCQASQSINSGLAWYQQKPGQPPKRLIYKASTLASGVPSRFRGSGSGTDFTLTISDLECADAATYYCQSYHYISANGATFGGGTEVVVET
notes: also called 1-D5_H1 (hIgG1)
B11: 1-D5_H0_VL-par (antibody, human IgG1, kappa, V domains shown)
VH: QVQLVESGGGVVQPGRSLRLSCAASGFTFSNYIMGWVRQAPGKGLEWVAIISTGGSTYYASWAKGRFTISRDNSKNTLYLQMNSLRAEDTAVYYCARGGSSAGAGFNIWGQGTLVTVSS
VL: DIVMTQTPSSVSAAVGDTVTIQCQASQSINSGLAWYQQKPGQPPKRLIYKASTLASGVPSRFRGSGSGTDFTLTISDLECADAATYYCQSYHYISANGATFGGGTEVVVET
notes: also called 1-D5_H0 (hIgG1)
B12: 3-H9_VH-par_VL-par (antibody, human IgG1, kappa)
heavy chain: not shown
light chain: AIKMTQTPSSVSVAVGGTVTINCQSSQSVYSNNLLSWYQQKPGQPPKLLIYDASTLESGVPSRFKGSGSGTQFTLTISGVQCEDAATYYCQGSYYSSGWYNTFGGGTEVVVETVAAPSVFIFPPSDEQLKSGTASVVCLLNNFYPREAKVQWKVDNALQSGNSQESVTEQDSKDSTYSLSSTLTLSKADYEKHKVYACEVTHQGLSSPVTKSFNRGEC
notes: also called 3-H9_parental (hIgG1)
B13: 3-H9_VH-par_L0 (antibody, human IgG1, kappa, V domains shown)
VH: SQSLEESGGRLVTPGTPLTLTCSVSGFSLSNYDMSWVRQAPGKGLEWIGSIHAIGITYYANWAEGRFTISKTSTTVDLKMTSLTTEDTATYFCARGLVDLNMWGPGTLVTVSS
VL: DIQMTQSPSSLSASVGDRVTITCQSSQSVYSNNLLSWYQQKPGKAPKLLIYDASTLESGVPSRFSGSGSGTDFTLTISSLQPEDFATYYCQGSYYSSGWYNTFGGGTKVEIKT
notes: also called 3-H9_L0 (hIgG1K)
B14: 3-H9_H2_VL-par (antibody, human IgG1, kappa, V domains shown)
VH: QQLVESGGGVVQPGRSLRLSCAASGFSLSNYDMSWVRQAPGKGLEWIGSIHAIGITYYANWAEGRFTISRDKNTVYLQMNSLRAEDTATYFCARGLVDLNMWGQGTLVTVSS
VL: AIKMTQTPSSVSVAVGGTVTINCQSSQSVYSNNLLSWYQQKPGQPPKLLIYDASTLESGVPSRFKGSGSGTQFTLTISGVQCEDAATYYCQGSYYSSGWYNTFGGGTEVVVET
notes: also called 3-H9_H2 (hIgG1)
B15: 3-H9_H1_VL-par (antibody, human IgG1, kappa, V domains shown)
VH: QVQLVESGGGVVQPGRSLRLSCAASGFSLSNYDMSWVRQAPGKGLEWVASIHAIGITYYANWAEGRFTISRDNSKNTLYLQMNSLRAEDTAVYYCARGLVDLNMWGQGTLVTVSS
VL: AIKMTQTPSSVSVAVGGTVTINCQSSQSVYSNNLLSWYQQKPGQPPKLLIYDASTLESGVPSRFKGSGSGTQFTLTISGVQCEDAATYYCQGSYYSSGWYNTFGGGTEVVVET
notes: also called 3-H9_H1 (hIgG1)

molecular target: T1, human full-length VWF (human, UniProt P04275 764-2813); assay: SPR, Biacore T200, antibody captured on Protein A, full-length VWF as analyte, single-cycle kinetics
Procedure: (§1) Antibodies were captured on Protein A sensor chip. The system was purged using running buffer (10 mM HEPES pH 7.4, 300 mM NaCl, 3 mM EDTA, 0.05% P20) and a series S Protein A chip was docked in the Biacore T200. The surface was conditioned with 10 mM glycine-HCl pH 1.5 regeneration solution (3 injections). Each antibody was diluted to ˜0.8 μg/ml in running buffer to capture ˜350 RU on flow cells 2, 3 and 4 (flow cell 1 used as in-line reference cell). Single-cycle kinetic analysis of human full-length VWF binding to antibodies was performed using the following parameters:

B1 was tested. Which Kd did it give?
The Kd was 16.1 pM.

And the koff?
Its koff is 4.34e-07 s⁻¹.

And the kon?
The kon was 26900 M⁻¹ s⁻¹.

molecular target: T1, human full-length VWF; assay: as above; remark: another data set of the same source
Procedure: as §1

Which Kd does the source give for B2 here?
Its Kd is 6.64 pM.

What about the koff of the same binder?
Its koff is 1.87e-07 s⁻¹.

What about the kon of the same binder?
The kon was 28200 M⁻¹ s⁻¹.

What does the source list for B3?
Kd: 13.1 pM; koff: 2.89e-07 s⁻¹; kon: 22100 M⁻¹ s⁻¹

B4 was tested. Which Kd did it give?
The Kd was 29.4 pM.

And the koff?
The koff was 1.59e-06 s⁻¹.

And the kon?
The kon was 54200 M⁻¹ s⁻¹.

How did the Kd turn out when B5 was run?
The Kd was 19.4 pM.

What about the koff of the same binder?
The koff was 1.75e-06 s⁻¹.

What about the kon of the same binder?
The kon was 90000 M⁻¹ s⁻¹.

B6 was tested. Which Kd did it give?
The Kd was 22.3 pM.

B7 was tested. Which Kd did it give?
Its Kd is 82.4 pM.

And the koff?
Its koff is 7.91e-06 s⁻¹.

And the kon?
Its kon is 96000 M⁻¹ s⁻¹.

Which Kd does the source give for B8 here?
The Kd was 50 pM.

What about the koff of the same binder?
The koff was 6.59e-06 s⁻¹.

What about the kon of the same binder?
The kon was 132000 M⁻¹ s⁻¹.

How did the Kd turn out when B9 was run?
The Kd was 31.2 pM.

What about the koff of the same binder?
Its koff is 4.2e-06 s⁻¹.

What about the kon of the same binder?
The kon was 135000 M⁻¹ s⁻¹.

Which results are given for B10?
Kd: 0.304 pM; koff: 2.37e-08 s⁻¹; kon: 78000 M⁻¹ s⁻¹

Which results are given for B11?
Kd: 0.031 pM; koff: 2.38e-09 s⁻¹; kon: 77000 M⁻¹ s⁻¹

How did the Kd turn out when B12 was run?
The Kd was 43.4 pM.

molecular target: T1, human full-length VWF; assay: as above; remark: another data set of the same source
Procedure: as §1

How did the Kd turn out when B13 was run?
The Kd was 111 pM.

What about the koff of the same binder?
Its koff is 2.12e-05 s⁻¹.

What about the kon of the same binder?
Its kon is 192000 M⁻¹ s⁻¹.

How did the Kd turn out when B14 was run?
Its Kd is 12.4 pM.

What about the koff of the same binder?
The koff was 1.14e-06 s⁻¹.

And the kon?
The kon was 92000 M⁻¹ s⁻¹.

What does the source list for B15?
Kd: 3.13 pM; koff: 7.18e-08 s⁻¹; kon: 22900 M⁻¹ s⁻¹
